Publication PMC5005036, “PDZD7-MYO7A complex identified in enriched stereocilia membranes” (eLife, 2016)

Biological target: T1, GFP-MYO7A (mouse) (mouse, UniProt P97479 1-2215)
T1 construct: MYO7A (myosin VIIA), mouse, in pEGFP-C1; plasmid obtained from David Corey; source: HEK293, transfected, in RIPA extract; not shown: GFP, N-terminal, kept
Experiment: affinity purification with mass spectrometry; HEK293 cells transfected; RIPA extract; 138-1 immunoprecipitates analysed by shotgun mass spectrometry, two technical replicates
Settings: partners not purified

T1 sequence (P97479 whole entry): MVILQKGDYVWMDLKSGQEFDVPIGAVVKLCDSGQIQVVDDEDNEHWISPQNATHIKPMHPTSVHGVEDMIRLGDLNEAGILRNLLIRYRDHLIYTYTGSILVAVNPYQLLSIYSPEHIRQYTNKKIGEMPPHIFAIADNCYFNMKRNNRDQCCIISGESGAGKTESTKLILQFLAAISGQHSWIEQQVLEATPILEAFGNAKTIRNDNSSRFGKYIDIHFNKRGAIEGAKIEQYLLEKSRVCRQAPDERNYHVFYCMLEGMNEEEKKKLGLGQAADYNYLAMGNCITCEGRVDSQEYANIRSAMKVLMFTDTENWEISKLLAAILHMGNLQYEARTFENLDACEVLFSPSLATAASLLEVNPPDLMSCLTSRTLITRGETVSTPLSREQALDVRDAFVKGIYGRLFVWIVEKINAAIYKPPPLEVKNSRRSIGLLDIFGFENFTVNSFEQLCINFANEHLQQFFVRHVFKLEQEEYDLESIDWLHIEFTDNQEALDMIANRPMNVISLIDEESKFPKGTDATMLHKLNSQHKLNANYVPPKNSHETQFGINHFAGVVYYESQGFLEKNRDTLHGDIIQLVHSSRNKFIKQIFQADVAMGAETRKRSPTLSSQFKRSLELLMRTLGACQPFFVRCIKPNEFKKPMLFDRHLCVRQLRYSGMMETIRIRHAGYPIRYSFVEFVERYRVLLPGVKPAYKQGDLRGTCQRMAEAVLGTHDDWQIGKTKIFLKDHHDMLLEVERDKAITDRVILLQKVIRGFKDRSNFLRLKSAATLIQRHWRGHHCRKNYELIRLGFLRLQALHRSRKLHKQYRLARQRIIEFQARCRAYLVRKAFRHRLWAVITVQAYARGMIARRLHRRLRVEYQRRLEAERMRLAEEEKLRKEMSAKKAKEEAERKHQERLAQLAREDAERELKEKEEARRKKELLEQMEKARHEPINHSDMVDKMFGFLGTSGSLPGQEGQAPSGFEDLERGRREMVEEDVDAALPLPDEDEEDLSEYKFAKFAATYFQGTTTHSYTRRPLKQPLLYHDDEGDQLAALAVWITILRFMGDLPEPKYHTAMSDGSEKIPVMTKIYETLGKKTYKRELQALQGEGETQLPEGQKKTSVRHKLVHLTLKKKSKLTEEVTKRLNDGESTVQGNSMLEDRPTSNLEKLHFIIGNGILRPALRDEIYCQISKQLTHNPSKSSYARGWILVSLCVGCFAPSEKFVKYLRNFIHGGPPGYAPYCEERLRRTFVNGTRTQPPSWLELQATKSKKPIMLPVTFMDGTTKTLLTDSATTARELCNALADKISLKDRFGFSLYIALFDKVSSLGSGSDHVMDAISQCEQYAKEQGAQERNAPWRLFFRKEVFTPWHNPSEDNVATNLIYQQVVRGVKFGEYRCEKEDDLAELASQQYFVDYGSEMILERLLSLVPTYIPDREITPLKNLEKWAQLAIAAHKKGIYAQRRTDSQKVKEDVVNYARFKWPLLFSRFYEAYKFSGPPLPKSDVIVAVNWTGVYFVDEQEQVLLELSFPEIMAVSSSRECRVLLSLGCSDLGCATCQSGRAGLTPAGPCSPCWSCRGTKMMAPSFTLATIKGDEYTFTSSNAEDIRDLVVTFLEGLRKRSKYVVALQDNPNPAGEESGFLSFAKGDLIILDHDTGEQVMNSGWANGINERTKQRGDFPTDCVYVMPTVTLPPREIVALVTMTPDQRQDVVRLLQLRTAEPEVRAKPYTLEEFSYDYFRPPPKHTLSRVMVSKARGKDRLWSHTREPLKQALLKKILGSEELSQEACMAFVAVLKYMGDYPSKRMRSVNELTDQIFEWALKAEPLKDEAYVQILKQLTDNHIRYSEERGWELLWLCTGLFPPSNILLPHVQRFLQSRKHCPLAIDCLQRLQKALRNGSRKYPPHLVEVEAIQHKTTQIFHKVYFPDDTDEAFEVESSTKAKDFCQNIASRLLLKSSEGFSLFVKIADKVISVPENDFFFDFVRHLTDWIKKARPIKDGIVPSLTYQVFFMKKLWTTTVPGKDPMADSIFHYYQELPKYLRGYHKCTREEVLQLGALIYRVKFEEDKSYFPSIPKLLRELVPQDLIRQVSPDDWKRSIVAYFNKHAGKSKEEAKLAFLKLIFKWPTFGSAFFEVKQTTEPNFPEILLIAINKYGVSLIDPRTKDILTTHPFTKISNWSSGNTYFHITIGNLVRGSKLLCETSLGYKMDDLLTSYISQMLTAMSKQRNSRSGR

B1: mCherry-PDZD7 (mouse), in HEK293 (natural protein, UniProt E9Q9W7 1-1021, looked up)
chain: MARGFTVGFDPLGLGELSSGSLSSVSSRGHLGSDSGSTATRYLLRKQQRLLNGPSRGIRASSPMGRVILINSPIEANSDESDIIHAVRVEKSPSGRLGFSVRGGSEHGLGIFVSKVEEGSSAERAGLCVGDKITEVNGLSLESTTMGSAVRLLTSSSCLHMMVRRMGRVPGIKFSKEKTTWVDVVNRRLVVEKCSSTPSDRSSEDGVRRIVHLYTTSDDFCLGFNIRGGKEFGLGIYVSKVDHGGLAEENGIKVGDQVLAANGVRFDDISHSQAVEVLKGQTHIMLTIKETGRYPAYKEMVSEYCWLDRLSNGVLQQLSPASESSSSVSSYASSAPCSSGSLPSDRMDVCLGPEEPTSHGPGWGRADTAMQTEPDLDSRVETWCSVRPTVILRDTAIRSDGPSSTRHLDSALSESPKTALLLALSRPRTPITRSQSHLTLWEEKKQRKKEKSGSSGEKGALQRSKTLMNLFFKGGRQGRPAGDGHREAWTLDSRSPTKVRPRLDLEKAGSVGPVQKFVTWRLRRDRERGRALLSARSGSPSGQAPTVNEQVQAWESRRPLIQDLARRLLTDDEVLAVTRHCSRYVHEGGVEDLVRPLLAILDRPTKLLLLRDIRSVVAPTDLGRFDSMVMPVELEAFEALKSRAVGPSALRPTRQDTPPKRHLITPVPDSRGGFYLLPVNSSEDEDGEIREKLGVLKVSLGASAPHHKGIPPLQDVPVDAFSLRRGACAPPPQPPPVAPRPPRPNWLLTEPLSREDTQQNQSQTPAQSCSRSRSRSRSRSHSRGQGKSPGRRRSPSPAPIATAATANGRYHRPRKARPLLPRLLDGQVAKVGARQGPLENGRIAEEAVGNVSTGALRTITLSKMKQSLGISISGGIESKVQPMVKIEKIFPGGAAFLCGDLQAGFELVAVDGESLEQVTHQRAVDTIRRAYRNKAREPMELVVRVPGPGLLPLASDLRVVKDQSLAPDCPSALGPVDDARILTQLPPPEARQLQQSLSSALKVPQSIPKLSPILKDPHDPS
notes: PDZD7, mouse, cloned into pmCherry-C1; also called PDZD7 fused to mCherry; source: HEK293, transfected, in RIPA extract; not shown: mCherry, N-terminal, kept
level in the 138-1 immunoprecipitate relative to MYO7A: ~0.4 x
